# Laboratory results reported in FireProtDB (doi:10.1021/bi00015a036).
# Details: Bacillus amyloliquefaciens, Thermal, DSC, reversible: yes (~80%), whole UniProt chain shown
protein,measurement,setting,value
"Ribonuclease wild type, P00648 (protein) MMKMEGIALKKRLSWISVCLLVLVSAAGMLFSTAAKTETSSHKAHTEAQVINTFDGVADYLQTYHKLPDNYITKSEAQALGWVASKGNLADVAPGKSIGGDIFSNREGKLPGKSGRTWREADINYTSGFRNSDRILYSSDWLIYKTTDHYQTFTKIR",Tm,"pH 7, PIPES 50 mM",54 °C
same,unfolding enthalpy (calorimetric),"pH 7, PIPES 50 mM",132 kcal/mol
same,Tm,"pH 10, CAPS 50 mM",48.6 °C
same,unfolding enthalpy (calorimetric),"pH 10, CAPS 50 mM",122 kcal/mol
same,Tm,"pH 10.3, CAPS 50 mM",48.4 °C
same,unfolding enthalpy (calorimetric),"pH 10.3, CAPS 50 mM",121 kcal/mol
same,Tm,"pH 10.5, CAPS 50 mM",47.4 °C
same,unfolding enthalpy (calorimetric),"pH 10.5, CAPS 50 mM",120 kcal/mol
